Test results from US20230167182A1 (BIOSION, published 2023).
Where a chain is given by its changes, count along the chain named. Like-named read-outs stand apart in the source and are kept apart here. Blank lines part the entries; values can stand above or below the binder they belong to.

Key:
[1] = target: T1, human IL6R expressed on cell surface (human, UniProt P08887 20-468); test: cell-based binding FACS on U266 cells
T1 construct: whole, on cells; also called cell surface human IL6R; U266 cells expressing human IL6R
T1 sequence (looked up): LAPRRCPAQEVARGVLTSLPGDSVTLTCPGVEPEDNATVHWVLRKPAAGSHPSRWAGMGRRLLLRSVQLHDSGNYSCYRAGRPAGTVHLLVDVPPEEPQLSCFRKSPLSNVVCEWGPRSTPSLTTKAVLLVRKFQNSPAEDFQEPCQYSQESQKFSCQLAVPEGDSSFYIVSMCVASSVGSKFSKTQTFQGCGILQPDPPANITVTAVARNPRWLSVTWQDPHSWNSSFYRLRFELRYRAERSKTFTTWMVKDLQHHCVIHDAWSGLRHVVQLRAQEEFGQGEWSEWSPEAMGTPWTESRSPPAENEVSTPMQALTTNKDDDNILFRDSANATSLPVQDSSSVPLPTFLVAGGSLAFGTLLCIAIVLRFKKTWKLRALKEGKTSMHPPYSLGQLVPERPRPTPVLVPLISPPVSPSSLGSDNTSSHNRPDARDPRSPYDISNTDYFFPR
Procedure: (§1) The binding activities of the mouse anti-IL6R antibodies to IL6R expressed on cell surface were tested by flow cytometry (FACS). Briefly, human myeloma cells U266 (ATCC® TIB-196™) were harvested from cell culture flasks, washed twice and resuspended in phosphate buffered saline (PBS) containing 2% v/v Fetal Bovine Serum (FACS buffer). 2×10⁵ U266 cells per well were incubated in 96 well-plates with 100 μl of the anti-IL6R antibodies or controls at various concentrations (starting at 40 nM with a 3-fold serial dilution in FACS buffer) for 40 minutes on ice. Cells were washed twice with FACS buffer, and added with 100 μL/well R-Phycoerythrin AffiniPure F(ab′)₂ Fragment Goat Anti-Mouse IgG (H+L) (1:1000 dilution in FACS buffer, Jackson ImmunoResearch Laboratories, Inc., Cat #115-116-146). Following an incubation of 40 minutes at 4° C. in dark, cells were washed three times and resuspended in FACS buffer. Fluorescence was measured using a Becton Dickinson FACS Canto II-HTS equipment. Data was analyzed using Graphpad Prism software and EC₅₀ values were reported.
For the cell-based binding FACS, R-Phycoerythrin AffiniPure Goat Anti-human IgG Fcγ fragment specific (Jackson ImmunoResearch Laboratories, Inc., Cat #109-115-098) was used instead of R-Phycoerythrin AffiniPure F(ab′)₂ Fragment Goat Anti-Mouse IgG (H+L), 1:1000 dilution in FACS buffer, 100 μl/well.

human IL6R-Fc protein [2] = target: T2, human IL6R-Fc protein (human, biotin-labeled in the ELISAs (sites not given)); test: benchmark blocking ELISA: antibody pre-incubated with biotin-labeled human IL6R-Fc, added to plate-coated Tocilizumab (competitor: Tocilizumab)
T2 construct: In house made; also called biotin-labeled human IL6R-Fc protein
Procedure: (§2) ELISA plates were washed once with wash buffer (PBS+0.05% v/v Tween-20, PBST) and then blocked with 200 μl/well blocking buffer (5% w/v non-fatty milk in PBST) overnight at 4° C.
(§3) The next day, the anti-IL6R antibodies of the disclosure or controls were diluted with biotin labeled human IL6R-Fc protein (SEQ ID NO: 43, 13.6 ng/ml in 2.5% w/v non-fatty milk in PBST), starting at 100 nM with a 5-fold serial dilution, and incubated at room temperature for 40 minutes. […] After incubation at 37° C. for 40 minutes, plates were washed 4 times using wash buffer. Then streptavidin conjugated HRP was added, and the plates were incubated for 40 minutes at 37° C. The plates were finally washed using wash buffer, and added with TMB. The reaction was stopped using 1M […], and the absorbance was read on a microplate reader using dual wavelength mode with 450 nm for TMB and 630 nm as the reference wavelength. The OD (450-630) values were plotted against antibody concentration. Data was analyzed using Graphpad Prism software and IC₅₀ values were reported.
Target sequence in this assay (chain, as listed by the source limits assumed): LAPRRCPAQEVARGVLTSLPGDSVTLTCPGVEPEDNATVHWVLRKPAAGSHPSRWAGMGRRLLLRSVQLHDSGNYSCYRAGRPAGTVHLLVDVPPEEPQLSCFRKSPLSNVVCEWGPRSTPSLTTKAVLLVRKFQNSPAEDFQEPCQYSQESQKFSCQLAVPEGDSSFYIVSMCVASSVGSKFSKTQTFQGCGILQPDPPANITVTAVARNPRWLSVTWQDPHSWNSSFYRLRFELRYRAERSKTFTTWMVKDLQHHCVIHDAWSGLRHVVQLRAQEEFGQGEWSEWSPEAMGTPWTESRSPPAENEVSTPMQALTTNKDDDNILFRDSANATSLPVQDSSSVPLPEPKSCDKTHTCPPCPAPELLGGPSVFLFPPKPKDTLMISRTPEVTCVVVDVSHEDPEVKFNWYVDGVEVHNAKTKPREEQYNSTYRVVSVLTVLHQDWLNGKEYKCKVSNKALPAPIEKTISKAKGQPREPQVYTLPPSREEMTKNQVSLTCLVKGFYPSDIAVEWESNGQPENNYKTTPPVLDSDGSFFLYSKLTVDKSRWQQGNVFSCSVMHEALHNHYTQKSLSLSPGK

[3] = target: T1, human IL6R expressed on cell surface; test: cell-based binding FACS on U266 cells; remark: listed apart in the source
Procedure: as §1

human IL6R-Fc protein [4] = target: T2, human IL6R-Fc protein; test: ligand blocking ELISA: antibody pre-incubated with biotin-labeled human IL6R-Fc, added to plate-coated human IL6 (blocked ligand: human IL6)
Procedure: The next day, anti-IL6R antibodies or controls were diluted with biotin labeled human IL6R-Fc protein (prepared in house, SEQ ID NO: 43, 39.5 ng/ml in 2.5% w/v non-fatty milk in PBST), starting at 100 nM with a 4-fold serial dilution, and incubated at room temperature for 40 minutes. […] Plates were washed for 4 times using wash buffer, and added and incubated with 100 μl/well of streptavidin conjugated HRP (1:10000 dilution in PBST buffer, Jackson ImmunoResearch Laboratories, Inc., Cat #016-030-084) for 40 minutes at 37° C. Plates were washed again using wash buffer. Finally, TMB was added and the reaction was stopped using 1M H₂SO₄. The absorbance was read on a microplate reader using dual wavelength mode with 450 nm for TMB and 630 nm as the reference wavelength, and then the OD (450-630) values were plotted against antibody concentration. Data was analyzed using Graphpad Prism software and IC₅₀ values were reported.

human IL6R-Fc protein [5] = target: T2, human IL6R-Fc protein; test: benchmark blocking ELISA: antibody pre-incubated with biotin-labeled human IL6R-Fc, added to plate-coated Tocilizumab (competitor: Tocilizumab); remark: listed apart in the source
Procedure: as §2, §3
Target sequence in this assay (chain, as listed by the source limits assumed): as above

human IL6R-Fc protein [6] = target: T2, human IL6R-Fc protein; test: as above; remark: listed apart in the source
Procedure: as §2, §3

human IL6R-Fc protein [7] = target: T2, human IL6R-Fc protein; test: ligand blocking ELISA: antibody pre-incubated with biotin-labeled human IL6R-Fc, added to plate-coated human IL6 (blocked ligand: human IL6); remark: listed apart in the source

EC50 [1]: 0.301 nM
IC50 (human IL6R-Fc protein [2]): 0.237 nM
B2: mouse anti-IL6R monoclonal antibody 1H7 (antibody, V domains shown)
VH: QVQLQQPGTELVKPGASVKLSCKASGYTFTNYWMHWVKQRPGQGLDWIGEINPTNGRTNYNENFKSKATLTVDKSSSTAYMQLSSLTSEDSAVYYCARLNTHYVFDSWGQGTTLTLSS
VL: EIVLTQSPTTLAASPGEKITFTCSVSSSISSNYLHWYQQKPGFSPKLLISRTSTLASGVPARFSGSGSGTSYSLTIGTMEAEDVATYYCQQGSGIPFTFGSGTKLELK
notes: Mouse hybridoma mAb

IC50 (human IL6R-Fc protein [6]): 0.708 nM
B4: mouse anti-IL6R monoclonal antibody 3C2 (antibody, V domains shown)
VH: B2 VH with N31T, M34I, D46E, T54S, N63H, Y80S, E89A, L116V
VL: B2 VL with L11M, F21I, V25A, S50Y, T54N, A61T, R62H, L107I
notes: Mouse hybridoma mAb

EC50 [3]: 1.7 nM
EC50 [1]: 1.76 nM
IC50 (human IL6R-Fc protein [4]): 2.33 nM
IC50 (human IL6R-Fc protein [7]): 0.616 nM
IC50 (human IL6R-Fc protein [5]): 1.41 nM
IC50 (human IL6R-Fc protein [6]): 2.23 nM
IC50 (human IL6R-Fc protein [2]): 0.862 nM
B8: Tocilizumab (antibody, human IgG1, kappa, V domains shown)
VH: QVQLQESGPGLVRPSQTLSLTCTVSGYSITSDHAWSWVRQPPGRGLEWIGYISYSGITTYNPSLKSRVTMLRDTSKNQFSLRLSSVTAADTAVYYCARSLARTTAMDYWGQGSLVTVSS
VL: DIQMTQSPSSLSASVGDRVTITCRASQDISSYLNWYQQKPGKAPKLLIYYTSRLHSGVPSRFSGSGSGTDFTFTISSLQPEDIATYYCQQGNTLPYTFGQGTKVEIKR
notes: In house made; also called benchmark; Actemra

IC50 (human IL6R-Fc protein [7]): 0.274 nM
B9: mouse anti-IL6R monoclonal antibody 1H9 (antibody, V domains shown)
VH: QVQLQQPGAELVKPGASVKLSCKASGYTFTSYWMHWVKLRPGQGLEWIGEINPTNGRTNYYEKFKNRATLTADKSSSTAYMQLSSLTFEDSAVYFCAKFHYSRWYFDVWGTGTTVTVSS
VL: DIVMTQSQKFMSTSVGDRVSITCKASQNVGTAVVWYQQKPGQSPKLLINPASNRYTGVPDRFTGSGSGTDFTLTISNMQSEDLADYFCQQYSSYPLTFGAGTKLELK
notes: Mouse hybridoma mAb

The next lines start with the binder.

B1: humanized antibody hu1H7-V5 (antibody, human IgG1, kappa, V domains shown)
VH: QVQLVQSGAEVKKPGASVKVSCKASGYTFTNYWMHWVRQAPGQGLEWIGEINPTNGRTNYNENFKSRVTLTVDTSTSTVYMELSSLRSEDTAVYYCARLNTHYVFDSWGQGTLVTVSS
VL: EIVLTQSPGTLSLSPGERATLSCSVSSSISSNYLHWYQQKPGLSPRLLISRTSTLASGIPARFSGSGSGTEYTLTISRMQSEDFAVYYCQQGSGIPFTFGQGTKLEIKR
notes: Human IgG1 / kappa
EC50 [1]: 0.417 nM
IC50 (human IL6R-Fc protein [2]): 0.364 nM

B3: mouse anti-IL6R monoclonal antibody 1A3 (antibody, V domains shown)
VH: QVQLQQPGAELVKPGASVKLSCKASGYTFTSYWMHWVKQRPAQGLEWIGEINPSNGRTNFNEKFKTKATLTVDKSSNTAYMQLSSLTSEDSAVYSCLRLNTHYVFDYWGQGTTLTVSS
VL: B2 VL with L11M, F21I, V25A, T54N, A61T, E82G, L107I
notes: Mouse hybridoma mAb purified on Protein A
EC50 [3]: 0.229 nM
IC50 (human IL6R-Fc protein [4]): 0.807 nM
IC50 (human IL6R-Fc protein [5]): 0.166 nM

B5: mouse anti-IL6R monoclonal antibody 1G1 (antibody, V domains shown)
VH: B2 VH with T9A, N31S, Q39V, D46E, N63D, D73E, K74S, L83F, S107Y, L116V
VL: B2 VL with T10I, S50Y, T54N, L107I
notes: Mouse hybridoma mAb
IC50 (human IL6R-Fc protein [6]): 0.481 nM

B6: Chimeric 1H7 (antibody, human IgG1, kappa, V domains shown)
VH: B2 VH
VL: EIVLTQSPTTLAASPGEKITFTCSVSSSISSNYLHWYQQKPGFSPKLLISRTSTLASGVPARFSGSGSGTSYSLTIGTMEAEDVATYYCQQGSGIPFTFGSGTKLELKR
notes: Mouse variable regions on human IgG1 / human kappa constant regions; also called chimeric antibody 1H7
EC50 [1]: 0.298 nM
IC50 (human IL6R-Fc protein [2]): 0.203 nM

B7: mouse anti-IL6R monoclonal antibody 1B5 (antibody, V domains shown)
VH: B2 VH with T9A, N31S, D46E, T54S, S107Y, L116V
VL: B2 VL with T10I, S50Y, T54N, L107I
notes: Mouse hybridoma mAb
EC50 [3]: 0.204 nM
IC50 (human IL6R-Fc protein [4]): 0.697 nM
IC50 (human IL6R-Fc protein [5]): 0.162 nM
